Assay [1] addresses Dns136-α-synuclein (Y136C, dansyl-labelled) (human) (UniProt P37840). Kind of assay: other fluorescence titration.
Assay [2] concerns the target α-synuclein peptide residues 118–140 containing C136, dansyl-labelled (DnsC23) (human) (UniProt P37840). Briefly: other fluorescence titration.
In assay [3] the target is Dns136-α-synuclein (Y136C, dansyl-labelled) (human) (UniProt P37840). Kind of assay: other fluorescence titration. The source holds these as a separate data set.
Assay [4] deals with Dns100-α-synuclein (L100C, dansyl-labelled) (human) (UniProt P37840). Briefly: other fluorescence titration.
For assay [5], the target named is Dns136-α-synuclein (Y136C, dansyl-labelled) (human) (UniProt P37840). Kind of assay: FRET or BRET.
The target of assay [6] is Dns100-α-synuclein (L100C, dansyl-labelled) (human) (UniProt P37840). Briefly: FRET or BRET. A general note: BRET reads energy transfer from a luciferase to a nearby fluorophore.
Assay [7] deals with Dns136-α-synuclein (Y136C, dansyl-labelled) (human) (UniProt P37840). Kind of assay: other fluorescence titration. The source holds these as a separate data set.
In assay [8] the target is Dns100-α-synuclein (L100C, dansyl-labelled) (human) (UniProt P37840). Kind of assay: other fluorescence titration. This is another data set of the same source.

Read-outs that look alike come from different tables or passages of the source.

As a reminder, the Kd is the free concentration of one partner at which half of the binding sites on the other are occupied at equilibrium, for simple one-to-one binding. A low value points to a tighter complex. “glucocerebrosidase (taliglucerase alfa, recombinant GCase) (from UniProt P04062 40-533) (enzyme)”: the Kd was found to be 11 µM in assay [1]; 2 µM in assay [2]; 8 µM in assay [3]; 40 µM in assay [4]; 1 µM in assay [7]; 1 µM in assay [8]. The <λ> shift in assay [5] came out at 6 nm; in assay [6] it was 2 nm.

For the origin of these results see PMC3552326.
